Results on five molecules are retold here after US20140127211A1 (Pfizer, published 2014).

Test [1] addresses T1, full-length human Notch3 expressed on the cell surface (human, UniProt Q9UM47 40-2321). Description: cell-based or functional assay.
Test [2] has as its target T1, full-length human Notch3 expressed on …. Description: cell-based or functional assay. This is another data set of the same source.
Test [3] has the same target. Description: cell-based ELISA, HCC2429 cells; SD 0.063. In general terms: In an ELISA, binding on a coated surface is turned into a signal by an enzyme label.
Description: (§1) On the day of the ELISA, culture media was removed from wells and serially diluted (1:3 in DPBS with calcium chloride and magnesium chloride (Ca/Mg) and 1% BSA) antibody and ADC solutions were applied to the plate. Plates were incubated at room temperature for 2 hours before washed with DPBS with Ca/Mg and 1% BSA. HRP-conjugated secondary antibody was then applied and incubated with cells for 1 hour. Plates were washed with DPBS with Ca/Mg and 1% BSA before being developed with Pico-Chemiluminescent developing kit (Thermal Scientific), and chemiluminescence measurements were performed per manufacturer's instructions. Data plotting and analyses were performed with Microsoft Excel and Graphpad-Prism software.
The target is the same in test [4]. The test can be described thus: cell-based ELISA, MDA-MB-468 cells; SD 0.062.
Description: as §1
The target is the same in test [5]. Description: cell-based ELISA, U2OS/hNotch3 cells; SD 0.041.
Description: as §1
For test [6] the target is unchanged. The test can be described thus: cell-based ELISA, U2OS/hNotch3 cells.
Description: U-2 OS cells stably over-expressing human or mouse full length Notch3 protein on cell surface (hereinafter U2OS/hNotch3 and U2OS/mNotch3, respectively) were plated at 50,000 cells/well in 96 well plates (white opaque, BD/VWR) the day before ELISA assay. On the day of the ELISA, culture media was removed from wells and serially diluted (1:3 in blocking buffer) antibody solutions were applied to the plate. Plates were incubated at room temperature for 2 hours before being washed with PBS-Mg/Ca. HRP-conjugated secondary antibody was then applied and incubated with cells for 1 hour as described above for recombinant protein ELISA. Plates were washed with PBS-Mg/Ca before being developed with Pico-Chemiluminescent developing kit (Thermal Scientific), and chemiluminescence measurements were performed per manufacturer's instructions. Data plotting and analyses were performed with Microsoft Excel and Graphpad-Prism software.
Test [7] has the same target. The test can be described thus: cell-based ELISA, HCC2429 cells; SD 0.053.
Description: as §1
For test [8] the target is unchanged. Description: cell-based ELISA, MDA-MB-468 cells; SD 0.176.
Description: as §1
Test [9] shares this target. The test can be described thus: cell-based ELISA, U2OS/hNotch3 cells; SD 0.160.
Description: as §1
Test [10] shares this target. Description: competition ELISA on U2OS/hNotch3 cells; competitor 0.8 nM biotinylated ch75.
Description: 96 well cell culture plates were seeded with U2OS/hNotch3 cells (cell culture plate, Co-star). […] After incubation for 2 hours, the plates were washed, as described above, and HRP-conjugated streptavidin (Southern Biotech) diluted 1:5000 in blocking buffer was applied. After incubation with streptavidin for 30 minutes, the plates were washed again before being developed with TMB solution for 10 minutes. […] Data plotting and analyses were performed with Microsoft Excel and Graphpad-Prism software.
Test [11] addresses T2, human Notch3 NRR recombinant protein (Notch3 NRR_Avi_His tag) (human).
T2 construct: Purified from CHO-PACE cells; the entry includes the C-terminal Avi and His6 tag
T2 chain: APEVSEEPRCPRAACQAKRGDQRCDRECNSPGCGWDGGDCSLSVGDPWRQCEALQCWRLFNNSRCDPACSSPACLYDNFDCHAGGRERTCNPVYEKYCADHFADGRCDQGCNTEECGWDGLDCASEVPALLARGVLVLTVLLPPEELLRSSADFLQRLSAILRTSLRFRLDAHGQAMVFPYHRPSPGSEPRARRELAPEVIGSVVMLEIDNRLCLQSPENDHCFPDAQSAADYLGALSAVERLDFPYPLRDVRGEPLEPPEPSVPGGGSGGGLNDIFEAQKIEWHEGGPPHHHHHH
Description: SPR (Biacore T100), antibody captured on anti-human IgG-Fc, Notch3 NRR as analyte, 1:1 Langmuir fit. (In general: Surface plasmon resonance follows binding to a sensor surface in real time, without labels.)
Description: The kinetic constants of the anti-Notch3 NRR interactions were determined by surface plasmon resonance (Biacore® T100, Biacore Inc., Piscataway, N.J.). Flow cells of a CM5 chip were immobilized with approximately 10,000 response units (RU) of anti-human IgG-Fc (Biacore®) in 10 mM Glycine, pH 5.0 at 10 μl/min for 600 seconds. […] Association of four concentrations of human Notch3 NRR recombinant protein (from 3.7-100 nM) and a zero concentration (running buffer) at 100 μl/min were recorded for 3 minutes in TBS with 1 mM CaCl₂. Dissociation of the complexes was measured for 10 minutes. The surface of the chip was regenerated by injecting 3M MgCl₂ with 3 mM EGTA for 60 seconds at 10 μl/min. Curves obtained after subtraction of the reference and buffer signals were fitted to a 1:1 Langmuir binding model with Biacore® T100 Evaluation Software (Biacore®).

The target in test [12] is T1, full-length human Notch3 expressed on …. Description: cell-based ELISA, HCC2429 cells; SD 0.115.
Description: as §1
Test [13] has the same target. The test can be described thus: cell-based ELISA, MDA-MB-468 cells; SD 0.167.
Description: as §1
Test [14] shares this target. Description: cell-based ELISA, U2OS/hNotch3 cells; SD 0.057.
Description: as §1
For test [15] the target is unchanged. Description: cell-based ELISA, HCC2429 cells; SD 0.034.
Description: as §1
For test [16] the target is unchanged. The test can be described thus: cell-based ELISA, MDA-MB-468 cells; SD 0.046.
Description: as §1
Test [17] shares this target. Description: cell-based ELISA, U2OS/hNotch3 cells; SD 0.008.
Description: as §1
Test [18] shares this target. The test can be described thus: cell-based ELISA, HCC2429 cells; SD 0.025.
Description: as §1
The target is the same in test [19]. Description: cell-based ELISA, MDA-MB-468 cells; SD 0.063.
Description: as §1
For test [20] the target is unchanged. Description: cell-based ELISA, U2OS/hNotch3 cells; SD 0.029.
Description: as §1

T1 sequence (Q9UM47 40-2321): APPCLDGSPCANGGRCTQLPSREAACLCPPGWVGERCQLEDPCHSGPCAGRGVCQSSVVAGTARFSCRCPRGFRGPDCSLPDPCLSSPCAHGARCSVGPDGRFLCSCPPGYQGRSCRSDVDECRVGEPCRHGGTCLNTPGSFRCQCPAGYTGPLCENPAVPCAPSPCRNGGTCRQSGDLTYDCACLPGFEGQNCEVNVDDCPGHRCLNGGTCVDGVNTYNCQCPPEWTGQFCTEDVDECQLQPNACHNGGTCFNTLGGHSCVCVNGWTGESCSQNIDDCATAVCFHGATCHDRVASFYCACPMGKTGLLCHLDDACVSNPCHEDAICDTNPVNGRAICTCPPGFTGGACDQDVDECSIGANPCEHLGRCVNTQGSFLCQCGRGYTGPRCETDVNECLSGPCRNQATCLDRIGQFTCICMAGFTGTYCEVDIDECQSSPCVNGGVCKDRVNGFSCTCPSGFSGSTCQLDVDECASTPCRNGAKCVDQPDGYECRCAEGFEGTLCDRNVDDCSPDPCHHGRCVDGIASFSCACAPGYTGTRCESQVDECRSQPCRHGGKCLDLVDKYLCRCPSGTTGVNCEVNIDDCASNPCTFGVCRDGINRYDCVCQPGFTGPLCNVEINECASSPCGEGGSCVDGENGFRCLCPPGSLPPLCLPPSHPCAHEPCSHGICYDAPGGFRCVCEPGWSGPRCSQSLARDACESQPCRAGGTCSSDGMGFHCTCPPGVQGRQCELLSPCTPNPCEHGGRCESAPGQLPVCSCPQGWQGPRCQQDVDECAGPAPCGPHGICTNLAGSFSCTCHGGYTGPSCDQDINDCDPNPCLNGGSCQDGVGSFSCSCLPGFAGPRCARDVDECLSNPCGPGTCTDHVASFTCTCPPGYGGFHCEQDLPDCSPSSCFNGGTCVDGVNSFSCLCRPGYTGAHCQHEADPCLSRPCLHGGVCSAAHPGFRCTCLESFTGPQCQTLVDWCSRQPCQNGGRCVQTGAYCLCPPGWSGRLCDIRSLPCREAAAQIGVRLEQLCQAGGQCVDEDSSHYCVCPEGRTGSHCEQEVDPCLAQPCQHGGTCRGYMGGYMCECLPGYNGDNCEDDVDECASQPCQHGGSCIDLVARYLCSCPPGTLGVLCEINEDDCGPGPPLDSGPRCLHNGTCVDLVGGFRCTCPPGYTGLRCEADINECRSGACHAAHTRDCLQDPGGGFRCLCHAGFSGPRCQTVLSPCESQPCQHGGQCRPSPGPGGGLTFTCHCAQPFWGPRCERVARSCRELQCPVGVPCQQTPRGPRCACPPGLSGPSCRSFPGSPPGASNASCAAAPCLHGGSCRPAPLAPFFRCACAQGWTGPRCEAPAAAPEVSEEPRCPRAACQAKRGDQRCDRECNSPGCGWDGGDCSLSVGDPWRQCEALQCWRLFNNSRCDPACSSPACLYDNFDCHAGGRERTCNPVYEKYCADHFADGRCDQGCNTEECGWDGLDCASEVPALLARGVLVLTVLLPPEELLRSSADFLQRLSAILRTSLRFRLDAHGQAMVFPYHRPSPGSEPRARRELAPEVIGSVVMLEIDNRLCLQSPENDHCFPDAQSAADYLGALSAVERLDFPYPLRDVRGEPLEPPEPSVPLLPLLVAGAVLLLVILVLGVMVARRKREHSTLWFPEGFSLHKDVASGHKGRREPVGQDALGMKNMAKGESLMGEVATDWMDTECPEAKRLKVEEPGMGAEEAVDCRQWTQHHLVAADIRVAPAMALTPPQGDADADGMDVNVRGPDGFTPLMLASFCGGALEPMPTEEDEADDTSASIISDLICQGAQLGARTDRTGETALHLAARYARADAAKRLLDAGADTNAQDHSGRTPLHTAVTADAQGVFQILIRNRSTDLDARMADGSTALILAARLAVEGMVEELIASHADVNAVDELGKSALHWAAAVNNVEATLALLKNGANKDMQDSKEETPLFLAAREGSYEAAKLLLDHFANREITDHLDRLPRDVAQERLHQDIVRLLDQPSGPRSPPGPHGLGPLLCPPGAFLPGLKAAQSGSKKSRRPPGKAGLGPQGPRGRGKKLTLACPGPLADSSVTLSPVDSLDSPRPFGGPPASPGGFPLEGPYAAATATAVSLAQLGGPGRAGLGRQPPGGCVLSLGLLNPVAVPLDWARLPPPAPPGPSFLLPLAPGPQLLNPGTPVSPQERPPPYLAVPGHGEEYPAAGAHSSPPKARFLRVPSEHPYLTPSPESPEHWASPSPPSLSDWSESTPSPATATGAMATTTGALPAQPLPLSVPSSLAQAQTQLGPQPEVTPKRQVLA

B1: hu75-vc6780 (Notch3-75-v1913-hG1-(C)_mcValCitPABC-#112) (antibody, human IgG1, kappa, V domains shown)
VH: EVQLVESGGGLVQPGGSLRLSCAASGYAFTDYWMTWVRQAPGKGLEWVAEISPNSGGTNFNEKFKGRFTISVDNAKNSLYLQMNSLRAEDTAVYYCARGEIRYNWFAYWGQGTLVTVSS
VL: DIQMTQSPSSLSASVGDRVTITCKASQNVGNNIAWYQQKPGKAPKLLIYYASNRYTGVPSRFSGSGYGTDFTLTISSLQPEDFATYYCQRLYNSPFTFGGGTKVEIKR
modifications: vc6780 linker-payload on cysteine residues after partial reduction; sites not specified
notes: Antibody-drug conjugate of hu75
Broadly, the EC50 is the concentration needed to bring the measured effect to its halfway point. A lower EC50 goes with an effect from little substance. In the case of B1, in test [1], the “IC50 of cytotoxicity (MTS viability), HCC2429 cells, repeat 1” value (“IC50 … HCC2429 cells, repeat 1” for short) was determined as 214 ng Ab/mL; the “IC50 of cytotoxicity (MTS viability), HCC2429 cells, repeat 2” value (“IC50 … HCC2429 cells, repeat 2” for short) was determined as 630 ng Ab/mL; the “IC50 of cytotoxicity (MTS viability), MDA-MB-468/hNotch3 cells, repeat 1” value (“IC50 … MDA-MB-468/hNotch3 cells, repeat 1” for short) was 26 ng Ab/mL; the “IC50 of cytotoxicity (MTS viability), MDA-MB-468/hNotch3 cells, repeat 2” value (“IC50 … MDA-MB-468/hNotch3 cells, repeat 2” below) came to 25 ng Ab/mL. Besides, the “IC50 of cytotoxicity (MTS viability), OVCAR3 cells” value (shortened to “IC50 of cytotoxicity … OVCAR3 cells”) in test [1] was 254 ng Ab/mL. Besides, in test [2], the “IC50 of cytotoxicity, MDA-MB-468/hNotch3 cells, Notch3 siRNA (reduced Notch3 expression)” value stood at 7980 ng Ab/mL and the “IC50 of cytotoxicity, MDA-MB-468/hNotch3 cells, control siRNA” value amounted to 17 ng Ab/mL. In addition, the midpoint of the response in test [3], the EC50, lay at 0.343 nM. The response in test [4] was half-maximal at 1.8 nM (EC50). The EC50 in [5] is 0.723 nM.

B2: hu75 (humanized r75 variant VH1.9/VL1.3) (antibody, human IgG1, kappa, V domains shown)
VH: B1 VH
VL: B1 VL
notes: Human IgG1/kappa; also called hu75 VH1.9/VL1.3; hu75 VH1.9/V1.3
As a reminder, the Kd is the equilibrium constant for the complex coming apart. Turning to B2, the EC50 came to 0.22 nM in test [6]; 0.335 nM in test [7]; 1.28 nM in test [8]; 0.585 nM in [9]; 1.7 nM in test [10]. Further, the Kd in [11] was found to be 9.76 nM.

B3: hu75-vc0101 (Notch3-75-v1913-hG1-(C)_mcValCitPABC-#54) (antibody, human IgG1, kappa, V domains shown)
VH: B1 VH
VL: B1 VL
modifications: vc0101 linker-payload on cysteine residues after partial reduction; sites not specified
notes: as for B1
For B3, in test [1], the “IC50 … HCC2429 cells, repeat 1” value is 611 ng Ab/mL; the “IC50 … HCC2429 cells, repeat 2” value amounted to 3300 ng Ab/mL; the “IC50 … MDA-MB-468/hNotch3 cells, repeat 1” value amounted to 37 ng Ab/mL; the “IC50 … MDA-MB-468/hNotch3 cells, repeat 2” value is 36 ng Ab/mL. In test [1], the “IC50 of cytotoxicity (MTS viability), MDA-MB-468 cells” value worked out at 7000 ng Ab/mL; the “IC50 of cytotoxicity … OVCAR3 cells” value amounted to 515 ng Ab/mL; the “IC50 of cytotoxicity (MTS viability), U2OS/hNotch3 cells” value worked out at 523 ng Ab/mL. Moreover, in [2], the “IC50 of cytotoxicity, MDA-MB-468/hNotch3 cells, Notch3 siRNA (reduced Notch3 expression)” value was found to be 3190 ng Ab/mL and the “IC50 of cytotoxicity, MDA-MB-468/hNotch3 cells, control siRNA” value came out at 29 ng Ab/mL. This molecule also registered an EC50 in test [12] of 0.427 nM. The molecule also yielded an EC50 in [13] of 2.02 nM. The molecule also returned an EC50 in test [14] of 0.798 nM.

B4: hu28-vc6780 (Notch3-28-v1010-hG1-(C)_mcValCitPABC-#112) (antibody, human IgG1, kappa, V domains shown)
VH: EVQLVESGGGLVQPGGSLRLSCAASGFTFRDYGMTWVRQAPGKGLEWVAYISSGSNYIYYAEAVKGRFTISRDNAKNSLYLQMNSLRAEDTAVYYCARRGPFVLDAWGQGTLVTVSS
VL: DIQMTQSPSSLSASVGDRVTITCKASQSINRYLHWYQQKPGKAPKLLIYNANGLQTGVPSRFSGSGSGTDFTLTISSLQPEDFATYYCLQHNTWPDTFGGGTKVEIKR
modifications: vc6780 linker-payload on cysteine residues after partial reduction; sites not specified
notes: Antibody-drug conjugate of hu28
Consider B4, for which, in test [1], the “IC50 … HCC2429 cells, repeat 1” value was 148 ng Ab/mL; the “IC50 … HCC2429 cells, repeat 2” value is 2050 ng Ab/mL; the “IC50 … MDA-MB-468/hNotch3 cells, repeat 1” value is 1.3 ng Ab/mL; the “IC50 … MDA-MB-468/hNotch3 cells, repeat 2” value came to 3 ng Ab/mL. Moreover, the “IC50 of cytotoxicity … OVCAR3 cells” value in test [1] was determined as 17 ng Ab/mL. For the same molecule, the “IC50 of cytotoxicity, MDA-MB-468/hNotch3 cells, control siRNA” value in test [2] amounted to 2 ng Ab/mL. In addition, the EC50 in test [15] was determined as 0.154 nM. The EC50 in test [16] was determined as 0.242 nM. The molecule further yielded an EC50 in test [17] of 0.236 nM.

B5: hu28-vc0101 (Notch3-28-v1010-hG1-(C)_mcValCitPABC-#54) (antibody, human IgG1, kappa, V domains shown)
VH: B4 VH
VL: B4 VL
modifications: vc0101 linker-payload on cysteine residues after partial reduction; sites not specified
notes: as for B4
As to B5, in test [1], the “IC50 … HCC2429 cells, repeat 1” value amounted to 473 ng Ab/mL; the “IC50 … HCC2429 cells, repeat 2” value was found to be 2940 ng Ab/mL; the “IC50 … MDA-MB-468/hNotch3 cells, repeat 1” value is 3.2 ng Ab/mL; the “IC50 … MDA-MB-468/hNotch3 cells, repeat 2” value amounted to 3 ng Ab/mL. Besides, in test [1], the “IC50 of cytotoxicity (MTS viability), MDA-MB-468 cells” value amounted to 6540 ng Ab/mL; the “IC50 of cytotoxicity … OVCAR3 cells” value stood at 306 ng Ab/mL; the “IC50 of cytotoxicity (MTS viability), U2OS/hNotch3 cells” value was 1330 ng Ab/mL. Also, in [2], the “IC50 of cytotoxicity, MDA-MB-468/hNotch3 cells, Notch3 siRNA (reduced Notch3 expression)” value amounted to 3340 ng Ab/mL and the “IC50 of cytotoxicity, MDA-MB-468/hNotch3 cells, control siRNA” value was 3 ng Ab/mL. Besides, in test [18], the EC50 was 0.176 nM. The molecule also had an EC50 in test [19] of 0.273 nM. Moreover, it took 0.266 nM to reach a half-maximal effect in [20] (EC50).
